Test results: US20180230224A1 (KITE PHARMA, published 2018)

T1: recombinant CD70-Fc (Sino Biological) (UniProt P32970 39-193, limits assumed)
T1 construct: Bought reagent; not shown: Fc part
T1 sequence (looked up): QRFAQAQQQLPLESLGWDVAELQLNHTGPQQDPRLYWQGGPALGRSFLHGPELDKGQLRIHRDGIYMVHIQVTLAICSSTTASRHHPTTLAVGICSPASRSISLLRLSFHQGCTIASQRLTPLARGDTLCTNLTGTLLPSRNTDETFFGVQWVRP


Experiments:
[1] = target: CD70 on NAMALWA and Raji cells (human) (UniProt P32970); assay: flow cytometry; Raji cells (panel title cut to 'Raj'; panel order given in the legend paragraph 42) stained with PE-conjugated anti-CD70 antibody; open histogram as control
[2] = target: CD70 on NAMALWA and Raji cells (human) (UniProt P32970); assay: flow cytometry; MV4;11 cells stained with PE-conjugated anti-CD70 antibody; open histogram as control
[3] = target: CD70 on NAMALWA and Raji cells (human) (UniProt P32970); assay: flow cytometry; Toledo cells stained with PE-conjugated anti-CD70 antibody; open histogram as control
[4] = target: CD70 on NAMALWA and Raji cells (human) (UniProt P32970); assay: flow cytometry; U-937 cells stained with PE-conjugated anti-CD70 antibody; open histogram as control
[5] = target: CD70 on NAMALWA and Raji cells (human) (UniProt P32970); assay: flow cytometry; NAMALWA cells stained with PE-conjugated anti-CD70 antibody; open histogram as control
[6] = target: CD70 on NAMALWA and Raji cells (human) (UniProt P32970); assay: flow cytometry; EoL-1 cells stained with PE-conjugated anti-CD70 antibody; open histogram as control
[7] = target: T1, recombinant CD70-Fc (Sino Biological); assay: flow cytometry; donor 1 T cells transduced with the CAR, day 14 post stimulation, stained with recombinant CD70-Fc and goat anti-human IgG Fc PE; mock-transduced cells as control
Experimental: Peripheral blood mononuclear cells (PBMCs) were isolated from two different healthy donor leukopaks (Hemacare) using Ficoll®-Paque density centrifugation according to the manufacturer's instructions. PBMCs were stimulated using OKT3 (Muromonab-CD3, 50 ng/ml, Miltenyi Biotec) in R10 media supplemented with IL-2 (300 IU/ml, Proleukin®, Prometheus® Therapeutics and Diagnostics). Forty-eight hours post-stimulation, cells were transduced using lentivirus containing the different CD70 CAR constructs at a multiplicity of infection (MOI) of 10. Cells were maintained at 0.5×10⁶-2.0×10⁶ cells/ml prior to use in activity assays.
At day 14 post-stimulation, transduced T cells were stained with recombinant CD70-Fc (Sino Biological) in stain buffer (BD Pharmingen) for 30 minutes at 4° C. Cells were then washed and stained with goat anti-human IgG Fc PE (Jackson ImmunoResearch) in stain buffer for 30 minutes at 4° C. Cells were then washed and resuspended in stain buffer with propidium iodide (BD Pharmingen) prior to data acquisition. All experiments were performed in two different donors.

Row | Molecule | % CAR (+) [7] | also measured
1 | anti-CD70 antibody conjugated to PE (BD Pharmingen) |  | percent of cells in the positive gate (number in the panel) [1]: 100%; percent of cells in the positive gate (number in the panel) [2]: 43.1%; percent of cells in the positive gate (number in the panel) [3]: 99.9%; percent of cells in the positive gate (number in the panel) [4]: 96.6%; percent of cells in the positive gate (number in the panel) [5]: 100%; percent of cells in the positive gate (number in the panel) [6]: 64.6%
2 | 6E9.1_C28T_28z (other, Chimeric antigen receptor on lentivirus-transduced human T cells; also called 28T-28z comprising a 6E9 scFv) QVHLVQSGAEVKKPGASVRVSCKASGYTFTSYYLHWVRQAPGQGLEWMGIVDPSGGSTSYDQKFQGRFTMTRDTSTSTVYMELSSLRSEDTAVYYCARDYGDYVFDYWGQGTLVTVSSGGGGSGGGGSGGGGSQSVLTQPPSASGTPGQRVTISCSGSSSNIGTNTVNWYQQLPGTAPQLLIYINNQRPSGVPDRFSGSKSGTSASLAISGLQSEDEADYYCATWDDSLNGPVVGGGTKLTVLGAAALDNEKSNGTIIHVKGKHLCPSPLFPGPSKPFWVLVVVGGVLACYSLLVTVAFIIFWVRSKRSRLLHSDYMNMTPRRPGPTRKHYQPYAPPRDFAAYRSRVKFSRSADAPAYQQGQNQLYNELNLGRREEYDVLDKRRGRDPEMGGKPRRKNPQEGLYNELQKDKMAEAYSEIGMKGERRRGKGHDGLYQGLSTATKDTYDALHMQALPPR | 4.45% | 
3 | 6E9.1_C28T_4Bz (other, Chimeric antigen receptor on lentivirus-transduced human T cells; 6E9 scFv, CD28T hinge/TM, 4-1BB, CD3 zeta; also called 28T-4Bz comprising a 6E9 scFv) QVHLVQSGAEVKKPGASVRVSCKASGYTFTSYYLHWVRQAPGQGLEWMGIVDPSGGSTSYDQKFQGRFTMTRDTSTSTVYMELSSLRSEDTAVYYCARDYGDYVFDYWGQGTLVTVSSGGGGSGGGGSGGGGSQSVLTQPPSASGTPGQRVTISCSGSSSNIGTNTVNWYQQLPGTAPQLLIYINNQRPSGVPDRFSGSKSGTSASLAISGLQSEDEADYYCATWDDSLNGPVVGGGTKLTVLGAAALDNEKSNGTIIHVKGKHLCPSPLFPGPSKPFWVLVVVGGVLACYSLLVTVAFIIFWVRFSVVKRGRKKLLYIFKQPFMRPVQTTQEEDGCSCRFPEEEEGGCELRVKFSRSADAPAYQQGQNQLYNELNLGRREEYDVLDKRRGRDPEMGGKPRRKNPQEGLYNELQKDKMAEAYSEIGMKGERRRGKGHDGLYQGLSTATKDTYDALHMQALPPR | 4.48% | 
4 | 1C8.1.001_C28T_4Bz (other, Chimeric antigen receptor on lentivirus-transduced human T cells; 1C8 scFv, CD28T hinge/TM, 4-1BB, CD3 zeta; also called 28T-4Bz comprising a 1C8 scFv) QVQLQESGPGLVKPSQTLSLTCTVSGDSIISGGYYWSWIRQHPGKGLEWIGYIFYSGSTDYNPSLKSRVTISVDTSKNQFSLKLSSVTAADTAVYYCARSGYSYALFDHWGQGTLVTVSSGGGGSGGGGSGGGGSDIQMTQSPSSLSASVGDRVTISCRASQFIGRYFNWYQQQPGKAPKVLIYAESSLQSGVPSRFSGSGSGTEFTLTISSLQPEDFARYYCQQSYSTPFTFGQGTKVEIKRAAALDNEKSNGTIIHVKGKHLCPSPLFPGPSKPFWVLVVVGGVLACYSLLVTVAFIIFWVRFSVVKRGRKKLLYIFKQPFMRPVQTTQEEDGCSCRFPEEEEGGCELRVKFSRSADAPAYQQGQNQLYNELNLGRREEYDVLDKRRGRDPEMGGKPRRKNPQEGLYNELQKDKMAEAYSEIGMKGERRRGKGHDGLYQGLSTATKDTYDALHMQALPPR | 0.27% | 
5 | 8G1.1_C28T_28z (other, also called CD70 CAR C3L; 28T-28z comprising an 8G1 scFv) QEQLVESGGGVVQPGRSLRLSCAASGFTFSSYGMHWVRQAPGKGLEWVAVTWYDGSNKYYGDSVKGRFTISRDNSKNTLYLQMNSLRAEDTAVYYCARDLLRGVKGYAMDVWGQGTTVTVSSGGGGSGGGGSGGGGSEIVLTQSPGTLSLSPGERATLSCRASQSLRRIYLAWYQQKPGQAPRLLIYDVFDRATGIPDRFSGGGSGTDFTLTISRLEPEDFAVYYCQQYSDSPFTFGPGTKVDIKRAAALDNEKSNGTIIHVKGKHLCPSPLFPGPSKPFWVLVVVGGVLACYSLLVTVAFIIFWVRSKRSRLLHSDYMNMTPRRPGPTRKHYQPYAPPRDFAAYRSRVKFSRSADAPAYQQGQNQLYNELNLGRREEYDVLDKRRGRDPEMGGKPRRKNPQEGLYNELQKDKMAEAYSEIGMKGERRRGKGHDGLYQGLSTATKDTYDALHMQALPPR | 42.2% | 
6 | 8G1.1_C28T_4Bz (other, Chimeric antigen receptor on lentivirus-transduced human T cells; 8G1 scFv, CD28T hinge/TM, 4-1BB, CD3 zeta; also called 28T-4Bz comprising an 8G1 scFv) QEQLVESGGGVVQPGRSLRLSCAASGFTFSSYGMHWVRQAPGKGLEWVAVTWYDGSNKYYGDSVKGRFTISRDNSKNTLYLQMNSLRAEDTAVYYCARDLLRGVKGYAMDVWGQGTTVTVSSGGGGSGGGGSGGGGSEIVLTQSPGTLSLSPGERATLSCRASQSLRRIYLAWYQQKPGQAPRLLIYDVFDRATGIPDRFSGGGSGTDFTLTISRLEPEDFAVYYCQQYSDSPFTFGPGTKVDIKRAAALDNEKSNGTIIHVKGKHLCPSPLFPGPSKPFWVLVVVGGVLACYSLLVTVAFIIFWVRFSVVKRGRKKLLYIFKQPFMRPVQTTQEEDGCSCRFPEEEEGGCELRVKFSRSADAPAYQQGQNQLYNELNLGRREEYDVLDKRRGRDPEMGGKPRRKNPQEGLYNELQKDKMAEAYSEIGMKGERRRGKGHDGLYQGLSTATKDTYDALHMQALPPR | 49.8% | 
7 | 1C8.1.001_C28T_28z (other, Chimeric antigen receptor on lentivirus-transduced human T cells; also called 28T-28z comprising a 1C8 scFv) QVQLQESGPGLVKPSQTLSLTCTVSGDSIISGGYYWSWIRQHPGKGLEWIGYIFYSGSTDYNPSLKSRVTISVDTSKNQFSLKLSSVTAADTAVYYCARSGYSYALFDHWGQGTLVTVSSGGGGSGGGGSGGGGSDIQMTQSPSSLSASVGDRVTISCRASQFIGRYFNWYQQQPGKAPKVLIYAESSLQSGVPSRFSGSGSGTEFTLTISSLQPEDFARYYCQQSYSTPFTFGQGTKVEIKRAAALDNEKSNGTIIHVKGKHLCPSPLFPGPSKPFWVLVVVGGVLACYSLLVTVAFIIFWVRSKRSRLLHSDYMNMTPRRPGPTRKHYQPYAPPRDFAAYRSRVKFSRSADAPAYQQGQNQLYNELNLGRREEYDVLDKRRGRDPEMGGKPRRKNPQEGLYNELQKDKMAEAYSEIGMKGERRRGKGHDGLYQGLSTATKDTYDALHMQALPPR | 25.4% | 
